Here are results for 2 molecules from US20150004162A1 (I2 PHARMACEUTICALS, published 2015).

Changes are numbered by the printed parent chain.

Assay [1] addresses T1, DR4 on Ramos cells (human, UniProt O00220 24-468).
T1 sequence (looked up): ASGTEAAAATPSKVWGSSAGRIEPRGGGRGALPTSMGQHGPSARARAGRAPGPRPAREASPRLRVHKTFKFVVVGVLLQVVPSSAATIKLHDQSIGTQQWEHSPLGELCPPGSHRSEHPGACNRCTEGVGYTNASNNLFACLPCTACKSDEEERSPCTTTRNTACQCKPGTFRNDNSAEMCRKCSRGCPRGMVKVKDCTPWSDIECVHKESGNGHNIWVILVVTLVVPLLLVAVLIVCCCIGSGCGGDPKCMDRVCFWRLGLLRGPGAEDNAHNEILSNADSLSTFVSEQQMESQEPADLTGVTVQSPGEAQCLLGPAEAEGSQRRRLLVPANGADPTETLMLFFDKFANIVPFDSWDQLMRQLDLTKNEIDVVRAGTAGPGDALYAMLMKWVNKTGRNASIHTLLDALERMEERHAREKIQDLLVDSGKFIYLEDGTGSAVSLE
The assay is described as follows: cell-based or functional assay.

Assay [2] concerns the target T2, human DR4 (human, UniProt O00220 24-239, limits assumed).
T2 construct: Recombinant DR4 coated on ELISA wells; also called death receptor 4; TRAIL-R1
T2 sequence: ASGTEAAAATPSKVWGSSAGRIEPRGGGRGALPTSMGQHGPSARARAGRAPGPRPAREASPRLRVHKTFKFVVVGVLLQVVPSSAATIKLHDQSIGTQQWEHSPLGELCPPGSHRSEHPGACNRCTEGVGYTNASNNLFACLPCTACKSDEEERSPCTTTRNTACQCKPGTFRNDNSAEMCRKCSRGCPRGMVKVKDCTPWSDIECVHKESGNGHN
As to the kind of experiment: antigen ELISA, half-log dilutions on coated human DR4, anti-human Fc-HRP. In general terms: ELISA stands for enzyme-linked immunosorbent assay.
Text: (§1) The bivalent SBP were detected using an anti-human Fc antibody conjugated to HRP.

Assay [3] concerns the target T3, human DR5 (human, UniProt O14763 52-183, limits assumed).
T3 construct: also called sDR5 (Peprotech); death receptor 5
As to the kind of experiment: antigen ELISA, half-log dilutions on coated human DR5, anti-human Fc-HRP.
Text: as §1

Assay [4] addresses T4, DcR1 (human, UniProt O14798 24-159, limits assumed).
T4 construct: Recombinant protein coated on wells; also called decoy receptor DcR1
T4 sequence: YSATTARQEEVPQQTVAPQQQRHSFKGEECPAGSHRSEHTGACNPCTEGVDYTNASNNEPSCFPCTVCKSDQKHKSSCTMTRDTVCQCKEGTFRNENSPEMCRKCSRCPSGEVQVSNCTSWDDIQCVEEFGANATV
The assay is described as follows: ELISA, bivalent SBP on TRAIL receptor family proteins [C].
Text: as §1

For assay [5], the target named is T5, DcR2 (human, UniProt Q9UBN6 56-189, limits assumed).
T5 construct: Recombinant protein coated on wells; also called decoy receptor DcR2
T5 sequence: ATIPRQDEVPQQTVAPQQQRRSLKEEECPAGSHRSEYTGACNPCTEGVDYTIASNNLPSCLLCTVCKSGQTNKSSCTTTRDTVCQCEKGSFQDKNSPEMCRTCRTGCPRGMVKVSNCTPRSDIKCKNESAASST
The assay is described as above.
Text: as §1

The target in assay [6] is T6, mouse DR5-Fc (mouse, UniProt Q9QZM4 53-177, limits assumed).
T6 construct: also called mouse death receptor; not shown: Fc part
T6 sequence (looked up): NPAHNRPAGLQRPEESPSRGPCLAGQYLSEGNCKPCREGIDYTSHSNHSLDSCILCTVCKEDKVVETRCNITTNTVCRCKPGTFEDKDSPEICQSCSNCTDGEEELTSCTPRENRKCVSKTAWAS
The assay is described as follows: ELISA, 100 ng/well mouse DR5-Fc, 10 nM bivalent SBP, detection HRP-aVpreB.

Assay [7] addresses T2, human DR4. The assay is described as follows: ELISA, half-log dilutions on wells coated with 1 microgram/ml human DR4, anti-human Fc HRP.
Text: as §1
Assay [8] addresses T3, human DR5. As to the kind of experiment: ELISA, half-log dilutions on wells coated with 1 microgram/ml human DR5, anti-human Fc HRP.
Text: as §1
Assay [9] deals with T7, Rhesus (NHP-2) DR5-Fc (Rhesus).
T7 construct: also called Rhesus DR5-Fc
As to the kind of experiment: ELISA, wells coated with 1 microgram/ml antigen, half-log dilutions, detection with anti-VpreB-HRP; inset table has no row label, the text calls the values half-maximal binding concentrations; unit from the axis Log[Agent] (nM) [panel D].
Text: (§2) Streptavidin-HRP or a monoclonal anti-VpreB-HRP conjugated antibody was used for detection and the assay developed with a TMB solution.

Assay [10] addresses T8, Cynomolgus (NHP-1) DR4-Fc (Cynomolgus).
T8 construct: also called Cynomolgus DR4-Fc
The assay is described as follows: ELISA, wells coated with 1 microgram/ml antigen, half-log dilutions of SgG, detection with anti-VpreB-HRP; unit taken from the axis Lg(nM) [panel A].
Text: as §2

In assay [11] the target is T9, Cynomolgus (NHP-1) DR5-Fc (Cynomolgus).
T9 construct: also called Cynomolgus DR5-Fc
As to the kind of experiment: ELISA, wells coated with 1 microgram/ml antigen, half-log dilutions of SgG, detection with anti-VpreB-HRP; unit taken from the axis Lg(nM) [panel B].
Text: as §2

The target in assay [12] is T10, Rhesus (NHP-2) DR4-Fc (Rhesus, UniProt F6TP00 24-239).
T10 construct: also called Rhesus DR4-Fc
T10 sequence: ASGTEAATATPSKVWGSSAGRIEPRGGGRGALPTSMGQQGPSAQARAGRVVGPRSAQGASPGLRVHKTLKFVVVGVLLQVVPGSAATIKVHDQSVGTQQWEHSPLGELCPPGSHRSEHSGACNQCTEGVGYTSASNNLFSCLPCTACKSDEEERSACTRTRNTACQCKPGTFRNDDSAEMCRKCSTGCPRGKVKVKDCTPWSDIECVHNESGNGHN
The assay is described as follows: ELISA, wells coated with 1 microgram/ml antigen, half-log dilutions, detection with anti-VpreB-HRP; inset table has no row label, the text calls the values half-maximal binding concentrations; unit from the axis Log[Agent] (nM) [panel C].
Text: as §2

T3 sequence (O14763 other isoform, or with tags, fused parts or gaps limits assumed): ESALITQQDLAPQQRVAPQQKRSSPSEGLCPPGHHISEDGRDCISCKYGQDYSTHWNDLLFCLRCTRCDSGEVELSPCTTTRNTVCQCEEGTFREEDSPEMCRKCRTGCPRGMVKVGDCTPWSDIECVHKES

B1: 3631-G09 bivalent SBP (other)
VH: EVQLVESGGGLVKPGGSLRLSCAASGFTFSTYGMHWVRQAPGKGLEWVAGINYSGNNKYYADSVKGRFTISRDNAKNSLYLQMNSLRAEDTAVYYCARDHSTWLSRHLDYWGQGTLVTVSS
surrogate light: QPVLHQPPAMSSALGTTIRLTCTLRNDHDIGVYSVYWYQQRPGHPPRFLLRYFSQSDKSQGPQVPPRFSGSKDVARNRGYLSISELQPEDEAMYYCAMGARSSVTHVFGSGTQLTVLSQPKATPSVTLFPPSSEELQANKATLVCLMNDFYPGILTVTWKADGTPITQGVEMTTPSKQSNNKYAASSYLSLTPEQWRSRRSYSCQVMHEGSTVEKTVAPAECS
notes: IgG1-like surroglobulin: full length heavy chain paired with surrogate light chain fusion 1, made in HEK293, Protein A purified; also called SL231; SL-231; copies: 2 + 2
For B1, in assay [1], the “EC50 (nM), inhibition of Ramos cell proliferation (WST-1), SgG cross-linked with anti-human-Fc antibody or Protein G” value amounted to 0.498 nM. Besides, the EC50 was ~30 pM in assay [2]; 50 pM in [3]; 29.8 pM in assay [7]; 50.1 pM in assay [8]; 627 pM in assay [9]. Besides, the values for the binding result in [4], in assay [5] and in assay [6] were “no binding (tested: 1000 nM)”, “no binding (tested: 1000 nM)” and “no binding (tested: 10 nM)”, respectively.

B2: 3706-A02 (SL466) (other)
VH: B1 VH with H100S, W103T, L104R, S105T, H107A
light: B1 surrogate light
notes: Bivalent SBP (SgG); also called SgG
For B2, the EC50 in assay [10] stood at 6360 pM; in assay [11] it was 273 pM; in [12], 146000 pM; in [9], 294 pM.

For orientation: EC50 means the concentration giving half of the maximal effect. A high value points to weaker potency.
